± gives the half width of the 95% confidence interval.
How the values were obtained:
[1] = folding stability dG unfold from chymotrypsin proteolysis; higher = more stable
Method in brief: (§1)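 Designed mini-proteins with no cysteine and under 80 residues were kept only if AlphaFold2 dimer inter-PAE was above 15. In a PA-tagged cDNA display construct, they were digested with trypsin and chymotrypsin and then sequenced. K50 was inferred by Bayesian fitting of counts, and unfolding free energy was derived per protease or combined against a sequence-predicted unfolded-state K50 and a shared folded-state K50.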

[2] = folding stability dG unfold from trypsin proteolysis; higher = more stable
Method in brief: as §1

[3] = folding stability dG unfold (combined trypsin and chymotrypsin); higher = more stable
Method in brief: as §1

Sequence	folding stability dG unfold [1]	folding stability dG unfold [2]	folding stability dG unfold [3]
SAGGMVEREFTLDGTRITITYVPSEGVILATFPDRTVTVPVPESLKDKSPEEVIELAKEFAKEYLESSAGGS [r16_215_JUSTAS]	3.08 ± 0.041 kcal/mol	4.14 ± 0.16 kcal/mol	3.43 ± 0.058 kcal/mol
SAGGMVFKTKDGYLVRIEVFNKETGEKTEILVPEENIEELLKALESKPGVTEVKVEIYKLKDGKPEKLSAGG [r13_914_TrROS_Hall]	1.38 ± 0.09 kcal/mol	0.862 ± 0.026 kcal/mol	1.21 ± 0.095 kcal/mol
SAGGMVFTITVRNPDGTVVELPFDVSDVTITPKNGDLYITVAGGKVLTLKTDEVLDIDPAAIAAANAASAGG [r13_925_JUSTAS]	1.26 ± 0.14 kcal/mol	0.901 ± 0.052 kcal/mol	1.13 ± 0.16 kcal/mol
SAGGMVIEKDGDYEYVLLLVDSPEGFPVEVAKELLKKEFGLKEIKVLSAKPLPNGIRLVLVKNKFEKSAGGS [r16_234_TrMRF]	1.57 ± 0.062 kcal/mol	0.875 ± 0.023 kcal/mol	1.3 ± 0.052 kcal/mol
SAGGMVIVVKTPGGATSITLGNLTITQDPSTGVAVAEATPEQVEALKKDPALKDIESIEILPEEELKSAGGS [r8_493_JUSTAS]	0.648 ± 0.056 kcal/mol	0.307 ± 0.024 kcal/mol	0.458 ± 0.14 kcal/mol
SAGGMVKLFTWPPGQPEEFAEKLRKLPDVVEVTIEEVDGALRIRIKLKGKDVEVTTDPAGRWSVTVVGSAGG [r13_907_JUSTAS]	2.35 ± 0.028 kcal/mol	2.15 ± 0.034 kcal/mol	2.28 ± 0.048 kcal/mol
SAGGMVKTITKPMPLEELEKVYEEAKEAIEAGYEVIFTYPLPDGTTITIKTDYETKKIVEIKTSKPVSSAGG [r13_873_JUSTAS]	1.09 ± 0.059 kcal/mol	-0.345 ± 0.67 kcal/mol	0.687 ± 0.28 kcal/mol
SAGGMVLEVEFTGPLSEVEAFIEELKAKPGVELLSVEIEVKPLPGPPVRYRVKLEVKIYDPENPVLLSAGGS [r8_374_JUSTAS]	3.07 ± 0.077 kcal/mol	2.26 ± 0.22 kcal/mol	2.74 ± 0.37 kcal/mol
SAGGMVLVIVSDLKPGELNEIIEKLKKEGLEVKLFLPNGEEIDADPNIEDLPEDVPVVLLVRHPDKSSAGGS [r16_31_TrMRF]	2.494 ± 0.017 kcal/mol	1.87 ± 0.079 kcal/mol	2.35 ± 0.053 kcal/mol
SAGGMVLVRIRVDMSPEERKRLEEELRKRVTEVRYLPEDEDVVEVRVSPEALAELPEERITEVELLPSAGGS [r16_328_TrROS_Hall]	-0.654 ± 0.32 kcal/mol	0.217 ± 0.15 kcal/mol	-0.0298 ± 0.097 kcal/mol
SAGGMVRITRDEDGILRVELFVEGTPEEAEEEAARLVRLLEELGFEEVRVEREPFGDGVVVTIEAKASAGGS [r8_113_TrMRF]	2.86 ± 0.083 kcal/mol	2.55 ± 0.11 kcal/mol	2.74 ± 0.076 kcal/mol
SAGGMVRVTVVPTPGRAGEPVTLVIEHPDGTRTVPLPPDTSPEEARAAAERLAEEEGLDVAEVVFEASAGGS [r16_753_JUSTAS]	0.428 ± 0.086 kcal/mol	0.243 ± 0.07 kcal/mol	0.376 ± 0.098 kcal/mol
SAGGMVTIELREVSEEEALKLAEELPPNTLLIPFPFGNLVLPVRVPDDPEVREKVAEEIRKFLEALPSAGGS [r16_311_TrMRF]	0.0455 ± 0.19 kcal/mol	1.13 ± 0.023 kcal/mol	0.67 ± 0.13 kcal/mol
SAGGMVTITVSIEEGKGYAVITITIDDETLTIKIPIPNMTEEDIKAKAEEIAKELAEKYGIEEIKLESAGGS [r16_249_JUSTAS]	3.37 ± 0.13 kcal/mol	3.08 ± 0.16 kcal/mol	3.34 ± 0.32 kcal/mol
SAGGMVTLTLPSPDGSTLTVTVEKDPNADYYRATVTTHHPDGTVTVTESVIHPDGTTTTLATTTLPASAGGS [r16_213_JUSTAS]	2.22 ± 0.04 kcal/mol	2.11 ± 0.08 kcal/mol	2.23 ± 0.12 kcal/mol
SAGGMVTLTYTDLVEEDPEVKAAKARELAEELREKGYTVTDATFDPEAGTLTITVSADDATLEEIAASAGGS [r8_344_TrMRF]	1.1 ± 0.065 kcal/mol	1.26 ± 0.071 kcal/mol	1.27 ± 0.099 kcal/mol
SAGGMVTVTDPNGVKHEYKLKVKITFEKPDGKPVTVEIEFDNVTVEDIVKIAKEIESKGYKLVSIEISSAGG [r13_227_TrMRF]	4.91 ± 0.15 kcal/mol	3.73 ± 0.34 kcal/mol	4.74 ± 0.22 kcal/mol
SAGGMVYRVKVKITFPDGKTYYIPFPNFKSFEEILNVLKKLGFENLENIPIEVIEIEPIPEVPEELLKSAGG [r13_493_TrMRF]	3.07 ± 0.11 kcal/mol	1.53 ± 0.066 kcal/mol	2.74 ± 0.16 kcal/mol
SAGGMYEIVDLLSVEPDPETGALTRTFLLRDPDSDRFLVAEVRIDPENPDRVEIRLYDEDGNLIAEFPSAGG [r13_658_TrMRF]	4.148 ± 0.034 kcal/mol	3.36 ± 0.083 kcal/mol	3.93 ± 0.045 kcal/mol
SAGGMYILELTFTTPTSTTPRTVEVPPGNYEEAAKALREELAAEAGAADLEVTFTVYKVAPDGTLVEESAGG [r13_877_JUSTAS]	2.51 ± 0.097 kcal/mol	1.16 ± 0.049 kcal/mol	2 ± 0.19 kcal/mol
SAGGMYKARIEVKNPEEVKKKIKELGLEFEIETRPDGSVDIYFPPEYVDKLIKAFPGEKIEIEPIPDESAGG [r13_261_TrMRF]	3.38 ± 0.11 kcal/mol	2.94 ± 0.15 kcal/mol	3.29 ± 0.14 kcal/mol

Sequence	folding stability dG unfold [1]	folding stability dG unfold [2]	folding stability dG unfold [3]
SAGGMYKVKIYFEDTKEEIEIEASAEEVLEAIKNGDLDALKKLFPGAKIVKIEVEKVEPEPEEEEEEESAGG [r13_629_TrROS_Hall]	3.48 ± 0.23 kcal/mol	3.33 ± 0.27 kcal/mol	3.44 ± 0.29 kcal/mol
SAGGMYLVKIKVKIDSPTSEKERDLYILAEPDTDVEEIVKKIPGAKNIEIEVEIIPPSENPEIASNPLSAGG [r19_339_JUSTAS]	0.7 ± 0.15 kcal/mol	0.645 ± 0.12 kcal/mol	0.684 ± 0.25 kcal/mol
SAGGMYVEVVIDNPDPDISPEELAEEVARELAPDPFEIKPVKIEPELIGGIPKVTILFEVDDPEAVEESAGG [r13_979_TrMRF]	0.958 ± 0.019 kcal/mol	0.238 ± 0.049 kcal/mol	0.763 ± 0.056 kcal/mol
SAGGNAKEIASYLADWFQERFPPNMKVKVSVTVTPDGIVVRIRMPGGWQFEITIKDGKLQEIEWTPYSAGGS [r8_287_TrROS]	2.874 ± 0.026 kcal/mol	2.72 ± 0.07 kcal/mol	2.79 ± 0.067 kcal/mol
SAGGNGRKKVKIDISIMIPIPPNDMPPEQRMKLAKELAERIARSLARKEGADPDKIDEVKVRFHIFPWSAGG [r13_5_TrROS]	2.65 ± 0.067 kcal/mol	2.03 ± 0.027 kcal/mol	2.44 ± 0.072 kcal/mol
SAGGNKATLTVSEDNYPVLLLELYAPDGELIATAPVLLDPEKGGLTAADLERLLKEIDVPPDVEVNIASAGG [r13_479_TrMRF]	1.36 ± 0.037 kcal/mol	1.21 ± 0.096 kcal/mol	1.32 ± 0.091 kcal/mol
SAGGNKNGKPKPTVPFKIMVMKPKPRRNDNNGQEEPRYDMRPVEIEFPLGEEIDLEEALENPDYIFIMSAGG [r13_753_TrROS]	0.276 ± 0.18 kcal/mol	-0.0176 ± 0.14 kcal/mol	0.199 ± 0.15 kcal/mol
SAGGNLFIRIKIEHDGGPITHWFPIKDAEQAKDNIKEFFDQQGLPVKIKEIEVFPEEGFIPVEWRVPPSAGG [r13_567_TrROS]	0.485 ± 0.12 kcal/mol	0.101 ± 0.12 kcal/mol	0.348 ± 0.11 kcal/mol
SAGGNLMIRVELYRPKPDPEGEWQKREVTLPMPPGEPIEELIDELRPPGWVIEIDIFDNGKPIREYYIRSAG [r5_278_TrROS]	2.86 ± 0.14 kcal/mol	1.76 ± 0.12 kcal/mol	2.34 ± 0.35 kcal/mol
SAGGNMFMIKIDDPDALKELANEPGISSVHYNPNNGRYTVMFNFPDGMRTFEIDAEDGKIKEIEPFPSAGGS [r8_251_TrROS]	1.82 ± 0.037 kcal/mol	1.58 ± 0.034 kcal/mol	1.79 ± 0.039 kcal/mol
SAGGNMWMVRVKIDDGKTFMITSPEDIEEYLKKKLGPNYKIKEVEWHRMPPPNGPPMPMHEFEIEVPSAGGS [r16_408_TrROS]	2.02 ± 0.1 kcal/mol	1.28 ± 0.062 kcal/mol	1.76 ± 0.16 kcal/mol
SAGGNRIMFIVNSPEEAERFANFIRKHLPPGMNLEIEIEPFPLKDNVPPDDPDYKNQPVYMVHITIPSAGGS [r16_795_TrROS]	4.13 ± 0.12 kcal/mol	3 ± 0.096 kcal/mol	3.73 ± 0.2 kcal/mol
SAGGNRKFTLIIRIKAPPGDPDKMKEEVKEIANEIADIFRDHGVKVKVKVEYDPDNGEIYVQVEFEVPSAGG [r13_755_TrROS]	5.12 ± 0.31 kcal/mol	3.89 ± 0.29 kcal/mol	4.78 ± 0.29 kcal/mol
SAGGNTIMIPMDPPQAREFAKNFIGEFLDQAEENPDRPIEIMVPGPEGRYITIRVDPKEGNLEIEVVPSAGG [r13_216_TrROS]	-0.125 ± 0.17 kcal/mol	0.231 ± 0.057 kcal/mol	0.125 ± 0.089 kcal/mol
SAGGPATLTFEFPAEDGSRVRVEVTVEEVPFVDPRTGEPVAPFLKVHVKVTVFDEDGEAHEAEFELLSAGGS [r8_474_TrMRF]	4.21 ± 0.075 kcal/mol	2.22 ± 0.043 kcal/mol	3.73 ± 0.12 kcal/mol
SAGGPDELELVIVFPAEALGTGEGGEPYTAEDIAEAIKKELPKDEVEVEIAEIDEETGEIVVTVKVPSAGGS [r16_284_TrMRF]	0.449 ± 0.077 kcal/mol	0.747 ± 0.13 kcal/mol	0.748 ± 0.23 kcal/mol
SAGGPEVFVFRDPLTGTWSLAVYDPSTGLWTVTYPDGTVALYRRSGDSWELVEARPVPPAPVDPDLASAGGS [r16_687_TrMRF]	3.714 ± 0.014 kcal/mol	3.34 ± 0.12 kcal/mol	3.54 ± 0.065 kcal/mol
SAGGPGAAPTSTTVTVTIHLPMPPDVSDEEAKALAKERIKEEFPPSYTIESITVDPATNVVTATVKVASAGG [r19_81_JUSTAS]	2.88 ± 0.1 kcal/mol	3.32 ± 0.15 kcal/mol	3.11 ± 0.16 kcal/mol
SAGGPGFQRYPYTLELPDGRKITVEYWRMGDNPYVQIDIRHDGEPLGTIHVPVPSPDQIEDAAKDIISAGGS [r16_55_TrROS]	1.78 ± 0.054 kcal/mol	1.18 ± 0.057 kcal/mol	1.58 ± 0.072 kcal/mol
SAGGPISKKKIVTAPVSYDPATGKYTITLTYPDSTYTIPSDLSDLEEALKRAKEKLEKETGIPVETVLGSAG [r5_251_JUSTAS]	1 ± 0.11 kcal/mol	0.576 ± 0.032 kcal/mol	0.918 ± 0.074 kcal/mol
SAGGPKKAIEILKKEGFTIKSVDPKKKKVIATPKETDIPIEIYVIGDDKVLIVEYLKGKPIIKEFKKSAGGS [r16_197_TrMRF]	0.741 ± 0.12 kcal/mol	0.834 ± 0.04 kcal/mol	0.829 ± 0.15 kcal/mol
